Experiment [1] concerns the target T1, Recombinant Human DLL4 (delta-like protein 4) (human, UniProt Q9NR61 27-529).
T1 construct: Bought recombinant protein (R&D Systems Cat#1506-D4/CF); also called rHuman DLL4; Delta-like 4
Description: ECL (MSD) multispot assay; Fab 0.1 µM.

The target in experiment [2] is T1, Recombinant Human DLL4 (delta-like …). Briefly: ECL (MSD) multispot assay; Fab 0.01 µM.
The target is the same in experiment [3]. Briefly: ECL (MSD) 96-well plate assay; plate coated with 30 µg/mL DLL4; Fab 0.02 µM.
The target is the same in experiment [4]. Briefly: ECL (MSD) 96-well plate assay; plate coated with 15 µg/mL DLL4; Fab 0.004 µM.
Experiment [5] addresses T2, rHuman CD44/Fc Chimera, CF (R&D Systems Cat#3660-CD) (human, UniProt P16070 21-220).
T2 construct: Bought recombinant Fc chimera; not shown: Fc of the bought R&D Systems chimera
Briefly: ECL Multispot (MSD), antigen spotted on plate, Fab 0.1 uM.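 Further: ratio compares each antigen's electrochemiluminescence to the blank within the same well, with a ratio of at least 4 counted as a binding Fab hit.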

The target of experiment [6] is T3, rHuman IGF-1 sR, CF (R&D Systems Cat#391-GR) (human, UniProt P08069 31-932).
T3 construct: Bought recombinant soluble receptor; also called insulin-like growth factor-1 soluble receptor
The experiment is described as above.

Experiment [7] has as its target T4, rHuman P-Cadherin/Fc Chimera, CF (R&D Systems Cat#861-PC) (human, UniProt P22223 108-654).
T4 construct: Bought recombinant Fc chimera; not shown: Fc of the bought R&D Systems chimera
Described as above.

The target in experiment [8] is T5, rHuman Erythropoietin R/Fc Chimera, CF (R&D Systems Cat#963-ER) (human, UniProt P19235 25-250).
T5 construct: Bought recombinant Fc chimera; also called EPO R; EPO R/Fc; not shown: Fc of the bought R&D Systems chimera
T5 sequence (looked up): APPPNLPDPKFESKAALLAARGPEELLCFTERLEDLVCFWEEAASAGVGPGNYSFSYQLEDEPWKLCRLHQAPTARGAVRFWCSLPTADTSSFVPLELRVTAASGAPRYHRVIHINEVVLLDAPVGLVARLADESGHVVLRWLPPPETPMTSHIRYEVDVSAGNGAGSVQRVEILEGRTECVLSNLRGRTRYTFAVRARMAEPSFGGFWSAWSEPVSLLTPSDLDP
Described as above.

The target of experiment [9] is T6, Recombinant Human DLL4 (R&D Systems Cat#1506-D4/CF) (human, UniProt Q9NR61 27-524).
T6 construct: Bought recombinant protein; also called delta-like protein 4; rHuman DLL4
The description is as above.

For experiment [10], the target named is T7, rHuman ErbB2/Fc Chimera, CF (R&D Systems Cat#1129-ER) (human, UniProt P04626 23-652).
T7 construct: Bought recombinant Fc chimera; not shown: Fc of the bought R&D Systems chimera
The experiment is described as above.

The target of experiment [11] is T8, rHuman EGF R/Fc Chimera, CF (R&D Systems Cat#344-ER) (human, UniProt P00533 25-645).
T8 construct: Bought recombinant Fc chimera; not shown: Fc of the bought R&D Systems chimera
The experiment is described as above.

Experiment [12] addresses T9, rHuman HGF R/c-MET/Fc Chimera, CF (R&D Systems Cat#358-MT/CF) (human, UniProt P08581 25-932).
T9 construct: Bought recombinant Fc chimera; also called HGF R/Fc; not shown: Fc of the bought R&D Systems chimera
The experiment is described as above.

In experiment [13] the target is T10, rHuman Notch-1/Fc Chimera, CF (R&D Systems Cat#3647-TK) (human, UniProt P46531 19-526).
T10 construct: Bought recombinant Fc chimera; not shown: Fc of the bought R&D Systems chimera
The description is as above.

For experiment [14], the target named is T11, Recombinant Human DLL4 (R&D Systems Cat#1506-D4/CF) (human, UniProt Q9NR61 27-524).
T11 construct: Bought recombinant protein; also called delta-like protein 4; rHuman DLL4
Briefly: ECL (MSD) binding assay, immobilised DLL4, repeat experiment.

Experiment [15] addresses T12, rHuman Notch-1/Fc Chimera, CF (R&D Systems Cat#3647-TK) (human, UniProt P46531 19-526).
T12 construct: Bought recombinant protein
Briefly: ECL Multispot (MSD) assay, antigen spotted on plate, 10 nM Fab.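 Further: purified Fab bound to antigen spots for 1 h at 20 °C, then TAG detection antibody, electrochemiluminescence compared with each well's blank, ratio of 4 or more marks a hit.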

Experiment [16] has as its target T13, rHuman CD44/Fc Chimera, CF (R&D Systems Cat#3660-CD) (human, UniProt P16070 21-220).
T13 construct: Bought recombinant protein
Described as above.

The target of experiment [17] is T14, rHuman IGF-1 sR (insulin-like growth factor-1 soluble receptor), CF (R&D Systems Cat#391-GR) (human, UniProt P08069 31-932).
T14 construct: Bought recombinant soluble receptor
The experiment is described as above.

The target of experiment [18] is T15, rHuman P-Cadherin/Fc Chimera, CF (R&D Systems Cat#861-PC) (human, UniProt P22223 108-654).
T15 construct: Bought recombinant protein
The description is as above.

Experiment [19] concerns the target T16, rHuman Erythropoietin R/Fc Chimera, CF (R&D Systems Cat#963-ER) (human, UniProt P19235 25-250).
T16 construct: Bought recombinant protein; also called EPO R; EPO R/Fc
T16 sequence (looked up): T5 sequence (looked up)
Described as above.

Experiment [20] deals with T11, Recombinant Human DLL4 (R&D Systems …). The description is as above.
In experiment [21] the target is T17, rHuman ErbB2/Fc Chimera, CF (R&D Systems Cat#1129-ER) (human, UniProt P04626 23-652).
T17 construct: Bought recombinant protein
The description is as above.

Experiment [22] deals with T18, rHuman EGF R/Fc Chimera, CF (R&D Systems Cat#344-ER) (human, UniProt P00533 25-645).
T18 construct: Bought recombinant protein
The experiment is described as above.

The target of experiment [23] is T19, rHuman HGF R/c-MET/Fc Chimera, CF (R&D Systems Cat#358-MT/CF) (human, UniProt P08581 25-932).
T19 construct: Bought recombinant protein; also called HGF R/Fc
The description is as above.

In experiment [24] the target is T11, Recombinant Human DLL4 (R&D Systems …). Description: ECL (MSD) binding assay, DLL4 signal divided by blank, repeat experiment.
Experiment [25] deals with T3, rHuman IGF-1 sR, CF (R&D Systems …). Description: ECL Multispot (MSD), antigen spotted on plate, Fab 0.01 uM.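 Further: electrochemiluminescence of each antigen spot divided by the blank of the same well, with a value of 4 or above scoring the Fab as a binding hit.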
The target in experiment [26] is T6, Recombinant Human DLL4 (R&D Systems …). The experiment is described as above.
For experiment [27], the target named is T8, rHuman EGF R/Fc Chimera, CF (R&D …). The experiment is described as above.
Experiment [28] deals with T9, rHuman HGF R/c-MET/Fc Chimera, CF (R&D …). The description is as above.

Where a chain is given by its changes, count along the chain named. Numbers in names are those of the source.

B1: Fab VH1-46_IGHD6-6*01_IGHJ1*01 S104F & L6_IGKJ1*01 (Fab, V domains shown)
VH: QVQLVQSGAEVKKPGASVKVSCKASGYTFTSYYMHWVRQAPGQGLEWMGIINPSGGSTSYAQKFQGRVTMTRDTSTSTVYMELSSLRSEDTAVYYCAREEYSSFSAEYFQHWGQGTLVTVSS
VL: not shown
notes: Fab; The VH was cloned into Plasmid A (CH1, His6 and Flag tags) and the kappa VL into Plasmid C (kappa CL); expressed in E. coli
In the case of B1, the “ECL signal” value in [1] was 27100; in experiment [2], 4280. Besides, the Signal/Noise in experiment [1] was 195; in [2], 15.3; in experiment [3], 76.5; in [4], 134.

B2: Fab VH1-46_IGHD6-6*01_IGHJ1*01 & L6_IGKJ1*01 (Fab, V domains shown)
VH: B1 VH with F104S
VL: not shown
notes: Germline 'Hit' Fab made in E. coli; The heavy chain variable region was cloned into Plasmid A (CH1, His6 and Flag tags) and the kappa light chain variable region into Plasmid C (kappa CL); also called Parent; parental
Turning to B2, the ECL signal/noise ratio in [5] is 1.8; in [6], 1.6; in experiment [7] it was 1.6; in experiment [8], 1.2; in experiment [9], 40.9; in experiment [10] it was 1.2. For the same molecule, the figures for the ECL signal/noise ratio in experiment [11], in experiment [12] and in experiment [13] were 1.2, 1.3 and 1.7, respectively.

B3: Fab VH1-46_IGHD6-6*01_IGHJ1*01 S102A/S103P/S104F/H111F T28A & L6_IGKJ1*01 (Fab, V domains shown)
VH: B1 VH with T28A, S102A, S103P, H111F
VL: not shown
notes: Fab as for m1 (CH1 with His6/Flag tags, kappa CL); also called APFF T28A
Take B3: the ECL signal in experiment [14] came to 181000; in experiment [15] it was 432; in experiment [16] it was 471; in experiment [17], 408; in [18], 381; in experiment [19], 480. The ECL signal in [20] is 140000; in [21] it was 411; in [22], 389; in experiment [23], 427. Besides, the Signal/Noise in experiment [24] is 404.

B4: Fab VH1-46_IGHD6-6*01_IGHJ1*01 S102A/S103P/S104F/H111F S31A & L6_IGKJ1*01 (Fab, V domains shown)
VH: B1 VH with S31A, S102A, S103P, H111F
VL: not shown
notes: Fab as for m1 (CH1 with His6/Flag tags, kappa CL); also called APFF S31A
Regarding B4, the ECL signal was 176000 in [14]; 333 in [15]; 379 in experiment [16]; 405 in experiment [17]; 255 in [18]; 454 in experiment [19]. Further, the ECL signal in experiment [20] came to 138000; in [21], 207; in experiment [22], 394; in experiment [23], 398. The Signal/Noise in experiment [24] is 530.

B5: Fab VH1-46_IGHD6-6*01_IGHJ1*01 S104F & L6_IGKJ1*01 (Fab, V domains shown)
VH: B1 VH
VL: not shown
notes: Fab made in E. coli; The heavy chain variable region was cloned into Plasmid A (CH1, His6 and Flag tags) and the kappa light chain variable region into Plasmid C (kappa CL)
Take B5: the ECL signal/noise ratio in experiment [6] came out at 1.7; in experiment [9], 195; in experiment [11], 2; in experiment [12] it was 1.6; in experiment [25], 0.6; in experiment [26], 15.3. The ECL signal/noise ratio came out at 0.8 in experiment [27] and 0.6 in experiment [28].

B6: Fab VH1-46_IGHD6-6*01_IGHJ1*01 S102A/S103P/S104F/H111F Y33A & L6_IGKJ1*01 (Fab, V domains shown)
VH: B1 VH with Y33A, S102A, S103P, H111F
VL: not shown
notes: Fab as for m1 (CH1 with His6/Flag tags, kappa CL); also called APFF Y33A
Take B6: the ECL signal was 59500 in [14]; 244 in [15]; 294 in [16]; 308 in [17]; 383 in [18]; 373 in [19]. In addition, the ECL signal in experiment [20] amounted to 27000; in [21] it was 394; in [22], 372; in [23] it was 345. Also, in experiment [24], the Signal/Noise came out at 225.

B7: Fab VH1-46_IGHD6-6*01_IGHJ1*01 S104H & L6_IGKJ1*01 (Fab, V domains shown)
VH: B1 VH with F104H
VL: not shown
notes: as for B1
With B7, the figures for the “ECL signal” value in experiment [1] and in experiment [2] were 20100 and 4160, respectively. For the same molecule, the Signal/Noise was 88.3 in experiment [1], 27 in experiment [2], 24.9 in experiment [3] and 79.2 in [4].

B8: Fab VH1-46_IGHD6-6*01_IGHJ1*01 S102A/S103P/S104F/H111F T30A & L6_IGKJ1*01 (Fab, V domains shown)
VH: B1 VH with T30A, S102A, S103P, H111F
VL: not shown
notes: Fab as for m1 (CH1 with His6/Flag tags, kappa CL); also called APFF T30A
Regarding B8, the ECL signal in experiment [14] was determined as 178000; in [15], 270; in experiment [16], 439; in experiment [17] it was 356; in [18], 275; in [19], 428. The ECL signal in experiment [20] is 140000; in experiment [21] it was 272; in experiment [22] it was 427; in experiment [23] it was 413. In experiment [24], the Signal/Noise stood at 503.
